{
  "source": "paper PMC5063618",
  "about": "(Molecular Biology of the Cell, 2016)",
  "binders": {"B1": {"name": "human Drp1 isoform 000 (dynamin-related protein-1), wild type (enzyme, UniProt O00429-4 1-699, looked up)", "chain": "MEALIPVINKLQDVFNTVGADIIQLPQIVVVGTQSSGKSSVLESLVGRDLLPRGTGIVTRRPLILQLVHVSQEDKRKTTGEENGVEAEEWGKFLHTKNKLYTDFDEIRQEIENETERISGNNKGVSPEPIHLKIFSPNVVNLTLVDLPGMTKVPVGDQPKDIELQIRELILRFISNPNSIILAVTAANTDMATSEALKISREVDPDGRRTLAVITKLDLMDAGTDAMDVLMGRVIPVKLGIIGVVNRSQLDINNKKSVTDSIRDEYAFLQKKYPSLANRNGTKYLARTLNRLLMHHIRDCLPELKTRINVLAAQYQSLLNSYGEPVDDKSATLLQLITKFATEYCNTIEGTAKYIETSELCGGARICYIFHETFGRTLESVDPLGGLNTIDILTAIRNATGPRPALFVPEVSFELLVKRQIKRLEEPSLRCVELVHEEMQRIIQHCSNYSTQELLRFPKLHDAIVEVVTCLLRKRLPVTNEMVHNLVAIELAYINTKHPDFADACGLMNNNIEEQRRNRLARELPSAVSRDKVASGGGGVGDGVQEPTTGNWRGMLKTSKAEELLAEEKSKPIPIMPASPQKGHAVNLLDVPVPVARKLSAREQRDCEVIERLIKSYFLIVRKNIQDSVPKAVMHFLVNHVKDTLQSELVGQLYKSSLLDDLLTESEDMAQRRKEAADMLKALQGASQIIAEIRETHLW"}, "B2": {"name": "GFP-Drp1 (human Drp1 isoform 000 with N-terminal GFP A206K) (enzyme)", "chain": "B1 chain"}},
  "key": {"[1]": {"target": "T1, rabbit skeletal muscle actin, as filaments (rabbit, UniProt P68135 1-377)", "assay": "co-sedimentation"}, "[2]": {"target": "the molecule itself", "assay": "AUC"}, "[3]": {"target": "T1, rabbit skeletal muscle actin, as …", "assay": "co-sedimentation", "remark": "listed apart in the source"}, "[4]": {"target": "T1, rabbit skeletal muscle actin, as …", "assay": "co-sedimentation", "remark": "listed apart in the source"}, "[5]": {"target": "T1, rabbit skeletal muscle actin, as …", "assay": "co-sedimentation", "remark": "listed apart in the source"}, "[6]": {"target": "T1, rabbit skeletal muscle actin, as …", "assay": "co-sedimentation", "remark": "listed apart in the source"}, "[7]": {"target": "T1, rabbit skeletal muscle actin, as …", "assay": "co-sedimentation", "remark": "listed apart in the source"}, "[8]": {"target": "T1, rabbit skeletal muscle actin, as …", "assay": "co-sedimentation", "remark": "listed apart in the source"}, "[9]": {"target": "T1, rabbit skeletal muscle actin, as …", "assay": "TIRF microscopy, fluorescence decay after washout"}, "[10]": {"target": "T1, rabbit skeletal muscle actin, as …", "assay": "TIRF microscopy, fluorescence decay after washout", "remark": "listed apart in the source"}, "[11]": {"target": "T1, rabbit skeletal muscle actin, as …", "assay": "TIRF microscopy, fluorescence decay after washout", "remark": "listed apart in the source"}, "[12]": {"target": "T1, rabbit skeletal muscle actin, as …", "assay": "TIRF microscopy, fluorescence decay after washout", "remark": "listed apart in the source"}, "[13]": {"target": "T1, rabbit skeletal muscle actin, as …", "assay": "TIRF microscopy, fluorescence decay after washout", "remark": "listed apart in the source"}, "[14]": {"target": "T1, rabbit skeletal muscle actin, as …", "assay": "TIRF microscopy, fluorescence decay after washout", "remark": "listed apart in the source"}, "[15]": {"target": "T1, rabbit skeletal muscle actin, as …", "assay": "TIRF microscopy, fluorescence decay after washout", "remark": "listed apart in the source"}, "[16]": {"target": "T1, rabbit skeletal muscle actin, as …", "assay": "TIRF microscopy, fluorescence decay after washout", "remark": "listed apart in the source"}, "[17]": {"target": "T1, rabbit skeletal muscle actin, as …", "assay": "TIRF microscopy, fluorescence decay after washout", "remark": "listed apart in the source"}, "[18]": {"target": "T1, rabbit skeletal muscle actin, as …", "assay": "TIRF microscopy, fluorescence decay after washout", "remark": "listed apart in the source"}, "[19]": {"target": "T1, rabbit skeletal muscle actin, as …", "assay": "TIRF microscopy, fluorescence decay after washout", "remark": "listed apart in the source"}, "[20]": {"target": "T1, rabbit skeletal muscle actin, as …", "assay": "TIRF microscopy, fluorescence decay after washout", "remark": "listed apart in the source"}, "[21]": {"target": "T1, rabbit skeletal muscle actin, as …", "assay": "TIRF microscopy, fluorescence decay after washout", "remark": "listed apart in the source"}},
  "note": "Like-named read-outs stand apart in the source and are kept apart here.",
  "data": [
    {"binder": "B1", "values": [
      {"measurement": "Kd", "setting": "[1]", "result": 800, "unit": "nM"},
      {"measurement": "stoichiometry N", "setting": "[2]", "result": 4},
      {"measurement": "Kd", "setting": "[3]", "result": 600, "unit": "nM"},
      {"measurement": "Kd", "setting": "[4]", "result": 1100, "unit": "nM"},
      {"measurement": "Kd", "setting": "[5]", "result": 2800, "unit": "nM"},
      {"measurement": "Kd", "setting": "[6]", "result": 500, "unit": "nM"},
      {"measurement": "Kd", "setting": "[7]", "result": 400, "unit": "nM"},
      {"measurement": "Kd", "setting": "[8]", "result": 200, "unit": "nM"}
    ]},
    {"binder": "B2", "values": [
      {"measurement": "t1/2 of dissociation", "setting": "[9]", "result": "84.1 ± 93.6", "unit": "s"},
      {"measurement": "t1/2 of dissociation", "setting": "[10]", "result": "4.1 ± 1.4", "unit": "s"},
      {"measurement": "t1/2 of dissociation", "setting": "[11]", "result": 9.8, "unit": "s"},
      {"measurement": "t1/2 of dissociation", "setting": "[12]", "result": "93.1 ± 88", "unit": "s"},
      {"measurement": "t1/2 of dissociation", "setting": "[13]", "result": "48.7 ± 20.6", "unit": "s"},
      {"measurement": "t1/2 of dissociation", "setting": "[14]", "result": "93.2 ± 94.5", "unit": "s"},
      {"measurement": "t1/2 of dissociation", "setting": "[15]", "result": "8.1 ± 4.3", "unit": "s"},
      {"measurement": "t1/2 of dissociation", "setting": "[16]", "result": "16.5 ± 2.5", "unit": "s"},
      {"measurement": "t1/2 of dissociation", "setting": "[17]", "result": "115 ± 43.5", "unit": "s"},
      {"measurement": "t1/2 of dissociation", "setting": "[18]", "result": "40 ± 20.3", "unit": "s"},
      {"measurement": "t1/2 of dissociation", "setting": "[19]", "result": "5.4 ± 2", "unit": "s"},
      {"measurement": "t1/2 of dissociation", "setting": "[20]", "result": "26.9 ± 20.6", "unit": "s"},
      {"measurement": "t1/2 of dissociation", "setting": "[21]", "result": "9.9 ± 4.4", "unit": "s"}
    ]}
  ]
}
